Reference: patent US20210032330A1 (PHANES THERAPEUTICS, published 2021)

B1: 7-P15-A (antibody, V domains shown)
VH: QIQLVQSGPELKKPGETVKISCKASGYTFTNYGMNWVKQAPGKGLKWMGWINTYTGEPTYADDFKGRFAFSLETSASTAYLQINNLKNEDTATYFCARDLMDYWGQGTTLTVSS
VL: DVVMTQTPLSLPVSLGDQASISCRSSQSLVHSNGNTYLHWYLQKPGQSPKLLIYKVSNRFSGVPDRFSGSGSGTDFTLKITRVEAEDLGVYFCSQSIHVPYTFGGGTKLEIK
notes: also called anti-TIM-3 monoclonal antibody 7-P15-A
B2: 18-O22-A (antibody, V domains shown)
VH: EVQLQQSGPELVKPGASVKVSCKASGYTFTSYVMHWVKQKPGQGLEWIGYINPYNDVTKYNEKFKGKATLTSDKSSSTAYMELSSLTSEDSAVYYCARSSDYDDGHWYFDVWGAGTTVTVSS
VL: DIVLTQSPASLAVSLGQRATISCKASQSVDYDGESYMNWYQQKPGQPPKLLIYVASNLESGIPVRFSGSGSGTDFTLNIHPVEEEDAATYYCQQSNEDPTWTFGGGTKLEIK
notes: also called anti-TIM-3 monoclonal antibody 18-O22-A
B3: 5-C11-A (antibody, V domains shown)
VH: EVQLVESGGGLVKPGGSLKLSCAASGFTFSDFYMYWVRQTPEKRLEWVATISDGGSYTYYPDSVKGRFTISRDNAKNNLYLQMSSLKSEDTAMYYCASGYYYGSDYVMDYWGQGTSVTVSS
VL: DIVMSQSPSSLAVSAGEKVTMSCKSSQSLLNSRTRKNYLAWYQQKPGQSPKLLIYWASTRESGVPDRFTGSGSGTDFTLTISSVQADDLAVYYCKQSYNLLTFGAGTKLELK
notes: also called anti-TIM-3 monoclonal antibody 5-C11-A
B4: 2-K2-A (antibody, V domains shown)
VH: QVQLQQSGAELAKPGASVKMSCKASGYTFTTYWMHWVKQRPGQGLEWIGYINPSTGYTEYNQKFKDKSTLTADKSSSTAYMQLSSLTSEDSAVYYCANDHEGGFAYWGQGTLVTVSA
VL: DILMTQSPSSMSVSLGDTVSITCHASQGISSNIGWLQQKPGKSFKGLIYHGTNLEDGVPSRFSGSGSGADYSLTISSLESEDFADYYCVQYAQFPFTFGSGTKLEIK
notes: also called anti-TIM-3 monoclonal antibody 2-K2-A
B5: 12-G18-A (antibody, V domains shown)
VH: DVQLQESGPGLVKPSQSLSLTCTVTGYSITSDYAWNWIRQFPGNKLEWMGYISYSGSTSYNPSLKSRISITRDTSKNQFFLQLNSVTIGDTATYYCASNYRYDYWFFGVWGAGTTVTVSS
VL: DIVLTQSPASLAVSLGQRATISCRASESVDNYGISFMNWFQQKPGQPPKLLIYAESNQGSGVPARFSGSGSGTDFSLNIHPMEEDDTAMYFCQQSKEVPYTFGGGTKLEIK
notes: also called anti-TIM-3 monoclonal antibody 12-G18-A
B6: 19-A14-A (antibody, V domains shown)
VH: DVQLQGSGPGLVKPSQSLSLTCTVTGYSITSDYAWNWIRQFPGNILEWMGYISYSGSTSYNPSLKSRISITRDTSKNQFFLQLNSVTTEDTATYYCARDGRYDYYAMDYWGQGTSVTVSS
VL: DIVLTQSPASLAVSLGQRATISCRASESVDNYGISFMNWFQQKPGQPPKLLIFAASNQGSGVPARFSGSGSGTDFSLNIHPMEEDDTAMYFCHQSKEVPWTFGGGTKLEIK
notes: also called anti-TIM-3 monoclonal antibody 19-A14-A

How the values were obtained:
[1] = molecular target: T1, human T-cell immunoglobulin and mucin-domain containing molecule 3 (TIM-3) (human, UniProt Q8TDQ0 22-200, limits assumed); test: competition ELISA: pre-equilibrated mixture of mAb and human TIM3(ECD)-huFc on plate-coated phosphatidylserine (PtdSer, a lipid), anti-huFc-HRP detection, % inhibition
T1 construct: also called Human TIM-3
Experimental: (§1) ELISA plates were coated with PtdSer or PtdChol, washed and incubated with a pre-equilibrated mixture of purified antibodies at various concentrations and TIM3(ECD)-huFc. The plates were washed and then the signal was detected by incubation with HRP-coupled anti-huFc secondary antibody and then a HRP substrate. TIM-3 binding to PtdSer was used as 100% signal and TIM-3 binding to PtdChol as zero (background) to calculate percent of inhibition by a given mAb.
(§2) To determine the effect of anti-TIM-3 antibodies on the interaction of TIM-3 with phosphatidylserine (PtdSer), 384-well ELISA plates were coated with PtdSer or phosphatidylcholine (PtdChol) at room temperature. The wells were washed using PBS supplemented with 0.1% Tween-20 and then blocked using PBS supplemented with 2% bovine serum albumin (BSA). […] The plates were washed and then incubated with HRP-coupled anti-huFc secondary antibody. Plates were washed, incubated with an HRP substrate, and read using a POLARstar Omega Microplate (BMG LABTECH). The assay was performed in triplicate.

[2] = molecular target: T1, human T-cell immunoglobulin and …; test: FACS on HEK293 cells transiently transfected with human TIM-3 (HuTIM-3 cells) against parental HEK293 cells (CTL cells), anti-mouse AlexaFluor488 secondary, MFI
Experimental: The binding of purified anti-TIM-3 mAbs to HEK293 cells transiently transfected with human TIM-3 (labeled as “HuTIM-3 cells”) or parental HEK293 cells (labeled as “CTL cells”) was tested by FACS at 3 different concentrations. An anti-mouse secondary Ab AlexaFluor488 was used for detection.
A human TIM-3-expressing plasmid was made and transiently transfected into HEK293T cells. After approximately 48 hours, cells were transferred to a 384-well V-bottom plate. Cells were washed with ice-cold FACS buffer (PBS supplemented with 1% BSA) and incubated with purified mAbs with gentle agitation at 4° C. for 45 minutes. The cells were washed with FACS buffer and incubated with an anti-mouse secondary Ab AlexaFluor488. The cells were washed and analyzed by FACS.

[3] = molecular target: T1, human T-cell immunoglobulin and …; test: competition ELISA: pre-equilibrated mixture of mAb and human TIM3(ECD)-huFc on plate-coated phosphatidylserine (PtdSer, a lipid), anti-huFc-HRP detection, % inhibition; remark: listed apart in the source
Experimental: as §1, §2

| binding result [1] | binding result [2] | IC50 (read off the curve) [3] [nM] | Binder |
| --- | --- | --- | --- |
| binds | – | – | B1 |
| binds | – | – | B2 |
| – | binds | – | B3 |
| – | binds | – | B4 |
| – | – | ~6 | B5 |
| – | – | ~7 | B6 |
